As a reminder, the stoichiometry N is the number of molecules, sites or subunits per partner or assembly.

From article PMC9312469 come the findings set out here.

The target in assay [1] is PH-YFP (isolated PLCδ1 PH domain linked to a yellow fluorescent protein variant that lacks the A206K mutation) (UniProt P51178). Briefly: fluorescence fluctuation spectroscopy (photon counting histogram); PH-YFP bound to POPC:PI(4,5)P2 (95:5) GUVs, 5 mM EDTA (0 μM Ca2+); two-brightness population model.
Assay [2] has the same target. Briefly: fluorescence fluctuation spectroscopy (photon counting histogram); PH-YFP bound to POPC:PI(4,5)P2 (95:5) GUVs, in the presence of Ca2+ (20, 50 and 100 μM taken together, on average); two-brightness population model.
Assay [3] has the same target. Briefly: fluorescence fluctuation spectroscopy (photon counting histogram); PH-YFP bound to POPC:PI(4,5)P2 (95:5) GUVs, 20 μM Ca2+; two-brightness population model.
Assay [4] has the same target. Description: fluorescence fluctuation spectroscopy (photon counting histogram); PH-YFP bound to POPC:PI(4,5)P2 (95:5) GUVs, 100 μM Ca2+; two-brightness population model.
Assay [5] has the same target. Description: fluorescence fluctuation spectroscopy (photon counting histogram); PH-YFP bound to POPC:PI(4,5)P2 (95:5) GUVs, 50 μM Ca2+; two-brightness population model.

“PH-YFP (isolated PLCδ1 PH domain linked to a yellow fluorescent protein variant that lacks the A206K mutation) (from UniProt P51178 21-130)”: in assay [1], the F1 (Monomeric Population), fraction weighed by brightness turned out to be 71.3%; the F2 (Oligomeric Population), fraction weighed by brightness is 28.7%; the brightness of the second population relative to the lower brightness (monomer) component came out at 2.3 fold; the stoichiometry N is 2. Moreover, the fraction of particles in the second (oligomeric) population in assay [2] is under 5%. Besides, in assay [3], the F1 (Monomeric Population), fraction weighed by brightness turned out to be 99.3% and the F2 (Oligomeric Population), fraction weighed by brightness was found to be 0.7%. In assay [4], the F1 (Monomeric Population), fraction weighed by brightness was 86.5% and the F2 (Oligomeric Population), fraction weighed by brightness is 13.5%. For the same substance, in assay [5], the F1 (Monomeric Population), fraction weighed by brightness was 82.5% and the F2 (Oligomeric Population), fraction weighed by brightness is 17.5%.
